Measured values from the supplement of paper PMC5998384.

Legend:
HeLa Kyoto [1] = experiment: solubility in G1/S (NP-40 vs SDS abundance) (log2 ratio); higher = more soluble; conditions: cell cycle stage: G1/S
HeLa Kyoto [2] = experiment: melting temperature (median over replicates), in situ; higher = more thermally stable
HeLa Kyoto [3] = experiment: solubility change mitosis vs G1/S (difference of NP-40 vs SDS log2 ratios) (log2 ratio difference); higher = more soluble in mitosis
HeLa Kyoto [4] = experiment: thermal stability score vs G1/S (z-score of summed log2 fold changes over temperatures); higher = more thermally stable than in G1/S
[5] = cell cycle stage: early G1 (4.5 h after nocodazole release)
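Throughout, for melting temperature (median over replicates), in situ: HeLa Kyoto cells synchronized by double thymidine or nocodazole block, proteins quantified by TMT10plex mass spectrometry, three independent biological replicates.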
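Throughout, for solubility change mitosis vs G1/S (difference of NP-40 vs SDS log2 ratios): synchronized HeLa Kyoto cells (double thymidine block for G1/S, nocodazole release for mitosis), protein amounts in NP-40 versus SDS lysates quantified by mass spectrometry, three biological replicates.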
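Throughout, for solubility in G1/S (NP-40 vs SDS abundance): HeLa Kyoto cells arrested at G1/S by double thymidine block, proteins quantified by TMT10plex mass spectrometry in mild NP-40 versus SDS extracts, three biological replicates.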
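Throughout, for thermal stability score vs G1/S (z-score of summed log2 fold changes over temperatures): synchronized HeLa Kyoto cells, proteins quantified by TMT10plex mass spectrometry, three biological replicates, mitosis taken 0.5 h after nocodazole release, G1/S directly after double thymidine block.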

Substance | solubility in G1/S (log2) (HeLa Kyoto [1]) | melting temperature (HeLa Kyoto [2]; cell cycle stage: G1/S) | solubility change mitosis (log2) (HeLa Kyoto [3]) | thermal stability score (HeLa Kyoto [4]; [5]) | thermal stability score (HeLa Kyoto [4]; cell cycle stage: mitosis) | melting temperature (HeLa Kyoto [2]; cell cycle stage: mitosis)
MPAPEQASLVEEGQPQTRQEAASTGPGMEPETTATTILASVKEQELQFQRLTRELEVERQIVASQLERCRLGAESPSIASTSSTEKSFPWRSTDVPNTGVSKPRVSDAVQPNNYLIRTEPEQGTLYSPEQTSLHESEGSLGNSRSSTQMNSYSDSGYQEAGSFHNSQNVSKADNRQQHSFIGSTNNHVVRNSRAEGQTLVQPSVANRAMRRVSSVPSRAQSPSYVISTGVSPSRGSLRTSLGSGFGSPSVTDPRPLNPSAYSSTTLPAARAASPYSQRPASPTAIRRIGSVTSRQTSNPNGPTPQYQTTARVGSPLTLTDAQTRVASPSQGQVGSSSPKRSGMTAVPQHLGPSLQRTVHDMEQFGQQQYDIYERMVPPRPDSLTGLRSSYASQHSQLGQDLRSAVSPDLHITPIYEGRTYYSPVYRSPNHGTVELQGSQTALYRTGSVGIGNLQRTSSQRSTLTYQRNNYALNTTATYAEPYRPIQYRVQECNYNRLQHAVPADDGTTRSPSIDSIQKDPREFAWRDPELPEVIHMLQHQFPSVQANAAAYLQHLCFGDNKVKMEVCRLGGIKHLVDLLDHRVLEVQKNACGALRNLVFGKSTDENKIAMKNVGGIPALLRLLRKSIDAEVRELVTGVLWNLSSCDAVKMTIIRDALSTLTNTVIVPHSGWNNSSFDDDHKIKFQTSLVLRNTTGCLRNLSSAGEEARKQMRSCEGLVDSLLYVIHTCVNTSDYDSKTVENCVCTLRNLSYRLELEVPQARLLGLNELDDLLGKESPSKDSEPSCWGKKKKKKKRTPQEDQWDGVGPIPGLSKSPKGVEMLWHPSVVKPYLTLLAESSNPATLEGSAGSLQNLSAGNWKFAAYIRAAVRKEKGLPILVELLRMDNDRVVSSVATALRNMALDVRNKELIGKYAMRDLVNRLPGGNGPSVLSDETMAAICCALHEVTSKNMENAKALADSGGIEKLVNITKGRGDRSSLKVVKAAAQVLNTLWQYRDLRSIYKKDGWNQNHFITPVSTLERDRFKSHPSLSTTNQQMSPIIQSVGSTSSSPALLGIRDPRSEYDRTQPPMQYYNSQGDATHKGLYPGSSKPSPIYISSYSSPAREQNRRLQHQQLYYSQDDSNRKNFDAYRLYLQSPHSYEDPYFDDRVHFPASTDYSTQYGLKSTTNYVDFYSTKRPSYRAEQYPGSPDSWV [PKP4] | -0.319 | 50.6 °C | 0.0763 | -0.193 | -0.925 | –
MTPLCPRPALCYHFLTSLLRSAMQNARGARQRAEAAVLSGPGPPLGRAAQHGIPRPLSSAGRLSQGCRGASTVGAAGWKGELPKAGGSPAPGPETPAISPSKRARPAEVGGMQLRFARLSEHATAPTRGSARAAGYDLYSAYDYTIPPMEKAVVKTDIQIALPSGCYGRVAPRSGLAAKHFIDVGAGVIDEDYRGNVGVVLFNFGKEKFEVKKGDRIAQLICERIFYPEIEEVQALDDTERGSGGFGSTGKN [DUT] | 0.483 | 53.2 °C | -0.0703 | 0.243 | -0.204 | 53.5 °C
MAKKTYDLLFKLLLIGDSGVGKTCVLFRFSDDAFNTTFISTIGIDFKIKTVELQGKKIKLQIWDTAGQERFHTITTSYYRGAMGIMLVYDITNGKSFENISKWLRNIDEHANEDVERMLLGNKCDMDDKRVVPKGKGEQIAREHGIRFFETSAKANINIEKAFLTLAEDILRKTPVKEPNSENVDISSGGGVTGWKSKCC [RAB10] | -0.153 | 57.5 °C | -0.146 | -0.265 | -1.23 | 56.5 °C
MVEEENIRVVRCGGSELNFRRAVFSADSKYIFCVSGDFVKVYSTVTEECVHILHGHRNLVTGIQLNPNNHLQLYSCSLDGTIKLWDYIDGILIKTFIVGCKLHALFTLAQAEDSVFVIVNKEKPDIFQLVSVKLPKSSSQEVEAKELSFVLDYINQSPKCIAFGNEGVYVAAVREFYLSVYFFKKKTTSRFTLSSSRNKKHAKNNFTCVACHPTEDCIASGHMDGKIRLWRNFYDDKKYTYTCLHWHHDMVMDLAFSVTGTSLLSGGRESVLVEWRDATEKNKEFLPRLGATIEHISVSPAGDLFCTSHSDNKIIIIHRNLEASAVIQGLVKDRSIFTGLMIDPRTKALVLNGKPGHLQFYSLQSDKQLYNLDIIQQEYINDYGLIQIELTKAAFGCFGNWLATVEQRQEKETELELQMKLWMYNKKTQGFILNTKINMPHEDCITALCFCNAEKSEQPTLVTASKDGYFKVWILTDDSDIYKKAVGWTCDFVGSYHKYQATNCCFSEDGSLLAVSFEEIVTIWDSVTWELKCTFCQRAGKIRHLCFGRLTCSKYLLGATENGILCCWNLLSCALEWNAKLNVRVMEPDPNSENIAAISQSSVGSDLFVFKPSEPRPLYIQKGISREKVQWGVFVPRDVPESFTSEAYQWLNRSQFYFLTKSQSLLTFSTKSPEEKLTPTSKQLLAEESLPTTPFYFILGKHRQQQDEKLNETLENELVQLPLTENIPAISELLHTPAHVLPSAAFLCSMFVNSLLLSKETKSAKEIPEDVDMEEEKESEDSDEENDFTEKVQDTSNTGLGEDIIHQLSKSEEKELRKFRKIDYSWIAAL [WDR75] | -1.21 | 50 °C | 0.372 | 1.76 | 0.92 | 50.1 °C
MENHKSNNKENITIVDISRKINQLPEAERNLLENGSVYVGLNAALCGLIANSLFRRILNVTKARIAAGLPMAGIPFLTTDLTYRCFVSFPLNTGDLDCETCTITRSGLTGLVIGGLYPVFLAIPVNGGLAARYQSALLPHKGNILSYWIRTSKPVFRKMLFPILLQTMFSAYLGSEQYKLLIKALQLSEPGKEIH [TMEM126A] | 0.245 | 52.8 °C | -0.094 | -0.173 | -0.978 | 52.4 °C
MSSGIHVALVTGGNKGIGLAIVRDLCRLFSGDVVLTARDVTRGQAAVQQLQAEGLSPRFHQLDIDDLQSIRALRDFLRKEYGGLDVLVNNAGIAFKVADPTPFHIQAEVTMKTNFFGTRDVCTELLPLIKPQGRVVNVSSIMSVRALKSCSPELQQKFRSETITEEELVGLMNKFVEDTKKGVHQKEGWPSSAYGVTKIGVTVLSRIHARKLSEQRKGDKILLNACCPGWVRTDMAGPKATKSPEEGAETPVYLALLPPDAEGPHGQFVSEKRVEQW [CBR1] | 0.626 | 53.2 °C | -0.0843 | -1.36 | -0.874 | 53 °C
MSSFSESALEKKLSELSNSQQSVQTLSLWLIHHRKHAGPIVSVWHRELRKAKSNRKLTFLYLANDVIQNSKRKGPEFTREFESVLVDAFSHVAREADEGCKKPLERLLNIWQERSVYGGEFIQQLKLSMEDSKSPPPKATEEKKSLKRTFQQIQEEEDDDYPGSYSPQDPSAGPLLTEELIKALQDLENAASGDATVRQKIASLPQEVQDVSLLEKITDKEAAERLSKTVDEACLLLAEYNGRLAAELEDRRQLARMLVEYTQNQKDVLSEKEKKLEEYKQKLARVTQVRKELKSHIQSLPDLSLLPNVTGGLAPLPSAGDLFSTD [RPRD1B] | 0.562 | 49.5 °C | 0.00357 | -0.302 | 0.484 | 50 °C
MPTGFVAPILCVLLPSPTREAATVASATGDSASERESAAPAAAPTAEAPPPSVVTRPEPQALPSPAIRAPLPDLYPFGTMRGGGFGDRDRDRDRGGFGARGGGGLPPKKFGNPGERLRKKKWDLSELPKFEKNFYVEHPEVARLTPYEVDELRRKKEITVRGGDVCPKPVFAFHHANFPQYVMDVLMDQHFTEPTPIQCQGFPLALSGRDMVGIAQTGSGKTLAYLLPAIVHINHQPYLERGDGPICLVLAPTRELAQQVQQVADDYGKCSRLKSTCIYGGAPKGPQIRDLERGVEICIATPGRLIDFLESGKTNLRRCTYLVLDEADRMLDMGFEPQIRKIVDQIRPDRQTLMWSATWPKEVRQLAEDFLRDYTQINVGNLELSANHNILQIVDVCMESEKDHKLIQLMEEIMAEKENKTIIFVETKRRCDDLTRRMRRDGWPAMCIHGDKSQPERDWVLNEFRSGKAPILIATDVASRGLDVEDVKFVINYDYPNSSEDYVHRIGRTARSTNKGTAYTFFTPGNLKQARELIKVLEEANQAINPKLMQLVDHRGGGGGGGGRSRYRTTSSANNPNLMYQDECDRRLRGVKDGGRRDSASYRDRSETDRAGYANGSGYGSPNSAFGAQAGQYTYGQGTYGAAAYGTSSYTAQEYGAGTYGASSTTSTGRSSQSSSQQFSGIGRSGQQPQPLMSQQFAQPPGATNMIGYMGQTAYQYPPPPPPPPPSRK [DDX17] | -0.381 | 49.1 °C | 0.16 | 3.12 | 5.66 | 49.8 °C
ZWILCH | 0.0446 | 50.9 °C | -0.229 | 0.346 | 0.376 | 50.2 °C
